Substrate in data set [1]: O=C(O)CCC(=O)C(=O)O
The data set is described as follows: purified protein, by the assay type. Particulars: other: saturated concentration of the other substrate (300 μM DAOC or α-KG); pH 7.3; 29.0 °C.

Substrate in data set [2]: CC1=C(C(=O)O)N2C(=O)[C@@H](NC(=O)CCC[C@@H](N)C(=O)O)[C@H]2SC1
The data set is described as follows: purified protein, by the assay type. The settings on record: other: saturated concentration of the other substrate (300 μM DAOC or α-KG); pH 7.3; 29.0 °C.

Usually Km stands for the substrate concentration at which the rate is half of its maximum.

B1: DAOC hydroxylase (Streptomyces clavuligerus) (protein)
chain: MADTPVPIFNLAALREGADQEKFRECVTGMGVFYLTGYGAGDKDHRLATDTAMDFFANGTEAEKAAVTTDVPTMRRGYSALEAESTAQVTRTGSYTDYSMSFSMGISGNVFPSPEFERVWTEYFDKLYAAAQETARLVLTASGGYDAEIVGSLDELLDADPVLRLRYFPEVPEHRSAEHEPRRMAPHYDLSIITFIHQTPCANGFVSLQAEIGGELVSLPVVEDAVVVMCGAMAPLATQGALPAPRHHVRSPGAGMREGSDRTSSVFFLRPTTDFSFSVAKARSYGLAVDLDMETATFGDWIGTNYVTMHAKNEPQAG
Take B1: the figures for the Km in data set [1] and in data set [2] were 10 µM and 50 µM, respectively.

The values are drawn from US5714363A, “Deacetoxycephalosporin C hydroxylase” (priority 1992, dated 1998).
